# B1: Alanine--glyoxylate aminotransferase, P21549 (parent)
# chain: MASHKLLVTPPKALLKPLSIPNQLLLGPGPSNLPPRIMAAGGLQMIGSMSKDMYQIMDEIKEGIQYVFQTRNPLTLVISGSGHCALEAALVNVLEPGDSFLVGANGIWGQRAVDIGERIGARVHPMTKDPGGHYTLQEVEEGLAQHKPVLLFLTHGESSTGVLQPLDGFGELCHRYKCLLLVDSVASLGGTPLYMDRQGIDILYSGSQKALNAPPGTSLISFSDKAKKKMYSRKTKPFSFYLDIKWLANFWGCDDQPRMYHHTIPVISLYSLRESLALIAEQGLENSWRQHREAAAYLHGRLQALGLQLFVKDPALRLPTVTTVAVPAGYDWRDIVSYVIDHFDIEIMGGLGPSTGKVLRIGLLGCNATRENVDRVTEALRAALQHCPKKKL
# Variants of: B1
# Conditions: Homo sapiens; pH 7.4; Thermal; DSC; Hepes 20 mM; NaCl 200 mM; transition: 2; reversible: No; structure 1H0C; whole UniProt chain shown
Variant,Tm,"change of melting temperature, mutant - wild type (higher = more stable)",unfolding enthalpy (calorimetric)
MASHKLLVTPPKALLKPLSIPNQLLLGPGPSNLPPRIMAAGGLQMIGSMSKEMYQIMDEIKEGIQYVFQTRNPLTLVISGSGHCALEAALVNVLEPGDSFLVGANGIWGQRAVDIGERIGARVHPMTKDPGGHYTLQEVEEGLAQHKPVLLFLTHGESSTGVLQPLDGFGELCHRYKCLLLVDSVASLGGTPLYMDRQGIDILYSGSQKALNAPPGTSLISFSDKAKKKMYSRKTKPFSFYLDIKWLANFWGCDDQPRMYHHTIPVISLYSLRESLALIAEQGLENSWRQHREAAAYLHGRLQALGLQLFVKDPALRLPTVTTVAVPAGYDWRDIVSYVIDHFDIEIMGGLGPSTGKVLRIGLLGCNATRENVDRVTEALRAALQHCPKKKL [D52E],84.4 °C,14.4 °C,544 kcal/mol
MASHKLLVTPPKALLKPLSIPNRLLLGPGPSNLPPRIMAAGGLQMIGHMSKEMYQIMDEIKEGIQYVFQTRNPLTLVISGSGHCALEAALVNVLEPGDSFLVGANGIWGQRAVDIGERIGARVHPMTKDPGGHYTLQEVEEGLAQHKPVLLFLTHGESSTGVLQPLDGFGELCHRYKCLLLVDSVASLGGTPLYMDRQGIDILYSGSQKALNAPPGTSLISFSDKAKKKMYSRKTKPFSFYLDIKWLANFWGCDDQPRMYHHTIPVISLYSLRESLALIAEQGLENSWRQHREAAAYLHGRLQALGLQLFVKDPALRLPTVTTVAVPAGYDWRDIVSYVMDHFDIEIMGGLGPSTGKVLRIGLLGCNATRENVDRVTEALRAALQHCPKKKL [Q23R S48H D52E I340M],92 °C,22 °C,609 kcal/mol
MASHKLLVTPPKALLKPLSIPNQLLLGPGPSNLPPRIMAAGGLQMIGHMSKEMYQIMDEIKEGIQYVFQTRNPLTLVISGSGHCALEAALVNVLEPGDSFLVGANGIWGQRAVDIGERIGARVHPMTKDPGGHYTLQEVEEGLAQHKPVLLFLTHGESSTGVLQPLDGFGELCHRYKCLLLVDSVASLGGTPLYMDRQGIDILYSGSQKALNAPPGTSLISFSDKAKKKMYSRKTKPFSFYLDIKWLANFWGCDDQPRMYHHTIPVISLYSLRESLALIAEQGLENSWRQHREAAAYLHGRLQALGLQLFVKDPALRLPTVTTVAVPAGYDWRDIVSYVMDHFDIEIMGGLGPSTGKVLRIGLLGCNATRENVDRVTEALRAALQHCPKKKL [S48H D52E I340M],89.5 °C,19.5 °C,315 kcal/mol
MASHKLLVTPLKALLKPLSIPNQLLLGPGPSNLPPRIMAAGGLQMIGSMSKDMYQIMDEIKEGIQYVFQTRNPLTLVISGSGHCALEAALVNVLEPGDSFLVGANGIWGQRAVDIGERIGARVHPMTKDPGGHYTLQEVEEGLAQHKPVLLFLTHGESSTGVLQPLDGFGELCHRYKCLLLVDSVASLGGTPLYMDRQGIDILYSGSQKALNAPPGTSLISFSDKAKKKMYSRKTKPFSFYLDIKWLANFWGCDDQPRMYHHTIPVISLYSLRESLALIAEQGLENSWRQHREAAAYLHGRLQALGLQLFVKDPALRLPTVTTVAVPAGYDWRDIVSYVMDHFDIEIMGGLGPSTGKVLRIGLLGCNATRENVDRVTEALRAALQHCPKKKL [P11L I340M],76.6 °C,6.6 °C,375 kcal/mol
MASHKLLVTPPKALLKPLSIPNQLLLGPGPSNLPPRIMAAGGLQMIGHMSKEMYQIMDEIKEGIQYVFQTRNPLTLVISGSGHCALEAALVNVLEPGDSFLVGANGIWGQRAADIGERIGARVHPMTKDPGGHYTLQEVEEGLAQHKPVLLFLTHGESSTGVLQPLDGFGELCHRYKCLLLVDSVASLGGTPLYMDRQGIDILYSGSQKALNAPPGTSLISFSDKAKKKMYSRKTKPFSFYLDIKWLANFWGCDDQPRMYHHTIPVISLYSLRESLALIAEQGLENSWRQHREAAAYLHGRLQALGLQLFVKDPALRLPTVTTVAVPAGYDWRDIVSYVMDHFDIEIMGGLGPSTGKVLRIGLLGCNATRENVDRVTEALRAALQHCPKKKL [S48H D52E V113A I340M],91 °C,21 °C,613 kcal/mol
MASHKLLVTPPKALLKPLSIPNQLLLGPGPSNLPPRIMAAGGLQMIGHMSKDMYQIMDEIKEGIQYVFQTRNPLTLVISGSGHCALEAALVNVLEPGDSFLVGANGIWGQRAVDIGERIGARVHPMTKDPGGHYTLQEVEEGLAQHKPVLLFLTHGESSTGVLQPLDGFGELCHRYKCLLLVDSVASLGGTPLYMDRQGIDILYSGSQKALNAPPGTSLISFSDKAKKKMYSRKTKPFSFYLDIKWLANFWGCDDQPRMYHHTIPVISLYSLRESLALIAEQGLENSWRQHREAAAYLHGRLQALGLQLFVKDPALRLPTVTTVAVPAGYDWRDIVSYVMDHFDIEIMGGLGPSTGKVLRIGLLGCNATRENVDRVTEALRAALQHCPKKKL [S48H I340M],88 °C,18 °C,599 kcal/mol
MASHKLLVTPPKALLKPLSIPNQLLLGPGPSNLPPRIMAAGGLQMIGHMSKDMYQIMDEIKEGIQYVFQTRNPLTLVISGSGHCALEAALVNVLEPGDSFLVGANGIWGQRAVDIGERIGARVHPMTKDPGGHYTLQEVEEGLAQHKPVLLFLTHGESSTGVLQPLDGFGELCHRYKCLLLVDSVASLGGTPLYMDRQGIDILYSGSQKALNAPPGTSLISFSDKAKKKMYSRKTKPFSFYLDIKWLANFWGCDDQPRMYHHTIPVISLYSLRESLALIAEQGLENSWRQHREAAAYLHGRLQALGLQLFVKDPALRLPTVTTVAVPAGYDWRDIVSYVIDHFDIEIMGGLGPSTGKVLRIGLLGCNATRENVDRVTEALRAALQHCPKKKL [S48H],85.5 °C,15.5 °C,520 kcal/mol

# Source: FireProtDB (doi:10.1016/j.bbapap.2014.10.010)
